Laboratory results reported in paper PMC9569306.

Experiments:
[1] = biological target: [FeFe]-hydrogenase HydA1 from Chlamydomonas reinhardtii (C. reinhardtii)
[2] = biological target: ferredoxin-NADP+ oxidoreductase (FNR) from Chlamydomonas reinhardtii (C. reinhardtii) (UniProt P53991)
[3] = biological target: [FeFe]-hydrogenase HydA2 from Chlamydomonas reinhardtii (C. reinhardtii)
[4] = biological target: [FeFe]-hydrogenase HydA1 from Chlamydomonas reinhardtii (C. reinhardtii); remark: listed apart in the source
[5] = biological target: ferredoxin-NADP+ oxidoreductase (FNR) from Chlamydomonas reinhardtii (C. reinhardtii) (UniProt P53991); remark: listed apart in the source

UniProt P53991, sequence (P53991 36-354): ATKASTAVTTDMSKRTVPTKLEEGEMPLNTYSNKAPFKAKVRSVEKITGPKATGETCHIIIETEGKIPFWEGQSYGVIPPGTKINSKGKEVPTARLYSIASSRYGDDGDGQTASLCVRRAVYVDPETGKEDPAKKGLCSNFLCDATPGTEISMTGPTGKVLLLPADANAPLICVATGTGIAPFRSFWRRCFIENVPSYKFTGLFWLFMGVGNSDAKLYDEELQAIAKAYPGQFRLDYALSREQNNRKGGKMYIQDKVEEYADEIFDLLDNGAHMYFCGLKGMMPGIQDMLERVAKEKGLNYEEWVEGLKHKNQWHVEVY

“ferredoxin Fdx2 from Chlamydomonas reinhardtii (natural protein)” gave an H2 production rate of HydA1, 50 µM ferredoxin reduced with 10 mM sodium dithionite, against PetF (% of the rate with PetF) [1] of 40, an NADPH-dependent cytochrome c reduction, 40 nM FNR, 5 µM ferredoxin, initial reaction speed (µM cyt c × min^−1) [2] of 121 and an H2 production rate of HydA2, 50 µM ferredoxin reduced with 10 mM sodium dithionite (µmol H2 × min^−1 × mg^−1) [3] of 12.6.

With “ferredoxin Fdx3 from Chlamydomonas reinhardtii (natural protein)” the H2 production rate of HydA2, 50 µM ferredoxin reduced with 10 mM sodium dithionite, against PetF (% of the rate with PetF) [3] was 10 and the light-dependent H2 production of HydA1 (50 nM, 10 µM ferredoxin) left in the presence of the competitor FNR (50 nM), against the rate without FNR [4] was 29%.

In the case of “ferredoxin Fdx7 from Chlamydomonas reinhardtii (natural protein)”, the H2 production rate of HydA1, 50 µM ferredoxin reduced with 10 mM sodium dithionite, against PetF (% of the rate with PetF) [1] is reported as 14 and the light-dependent H2 production of HydA1 (50 nM, 10 µM ferredoxin) left in the presence of the competitor FNR (50 nM), against the rate without FNR [4] is reported as 59%.

“ferredoxin Fdx8 from Chlamydomonas reinhardtii (natural protein)” was tested, and the light-dependent H2 production of HydA1 (50 nM, 10 µM ferredoxin) left in the presence of the competitor FNR (50 nM), against the rate without FNR [4] was 52%.

With “ferredoxin Fdx10 from Chlamydomonas reinhardtii (natural protein)” the NADPH-dependent cytochrome c reduction, 40 nM FNR, 5 µM ferredoxin (µM cyt c × min^−1) [5] was 23.3 and the light-dependent H2 production of HydA1 (50 nM, 10 µM ferredoxin) left in the presence of the competitor FNR (50 nM), against the rate without FNR [4] was 43%.

“ferredoxin Fdx11 from Chlamydomonas reinhardtii (natural protein)” was tested, and the NADPH-dependent cytochrome c reduction, 40 nM FNR, 5 µM ferredoxin (µM cyt c × min^−1) [5] was 34.4.

For “photosynthetic ferredoxin PetF from Chlamydomonas reinhardtii (from UniProt P07839 33-126) (natural protein)”, the H2 production rate of HydA1, 50 µM ferredoxin reduced with 10 mM sodium dithionite (µmol H2 × min^−1 × mg^−1) [1] was 225, the NADPH-dependent cytochrome c reduction, 40 nM FNR, 5 µM ferredoxin, initial reaction speed (µM cyt c × min^−1) [2] was 84.2 and the H2 production rate of HydA2, 50 µM ferredoxin reduced with 10 mM sodium dithionite (µmol H2 × min^−1 × mg^−1) [3] was 63.9.
